The target in this experiment is T1, GST-PTPMT1 (human) (UniProt Q8WUK0).
T1 sequence: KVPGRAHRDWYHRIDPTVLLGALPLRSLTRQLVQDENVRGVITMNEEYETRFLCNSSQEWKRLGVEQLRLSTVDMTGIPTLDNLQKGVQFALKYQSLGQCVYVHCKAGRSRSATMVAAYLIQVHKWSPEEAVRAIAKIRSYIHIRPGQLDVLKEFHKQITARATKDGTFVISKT

Consider “FLAG-MK-STYX (from UniProt Q9Y6J8-1 2-313) (natural protein)”, for which the reduction of PTPMT1 phosphatase activity towards OMFP, compared to FLAG protein alone; MK-STYX incubated with GST-PTPMT1 at 1:1 (51%) to 2:1 (60%) mass ratio stood at 60%.

The record behind these values is PMC3977970.
